Literature values as cited in publication PMC9601870.

Biological target: Cys32 (UniProt position 33, FWAEWCGPCKM)
Conditions: not stated (thiol ionisation implies the reduced dithiol form; inferred)

Thioredoxin 1 (Trx) (Escherichia coli)
pKa: 7.1–7.4
